The nanobody polyreactivity screen of Harvey et al. (2022)

assay: yeast display, Sf9 membrane polyspecificity reagent, FACS + sequencing; frameworks hold sequencing errors
Procedure, shortened: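 Nanobodies from a synthetic yeast display library (Saccharomyces cerevisiae BJ5465), induced 36–48 hours with galactose, were stained 1 hour at 4 °C with 10% biotinylated, detergent-solubilized Sf9 membrane reagent, enriched on streptavidin microbeads, then FACS-sorted. Anti-HA (expression) and streptavidin (reagent binding) fluorescence set low and high (top ~1%) gates. Polyreactivity labels come from the gate of origin. Genes were colony-PCR amplified, MiSeq 2 × 250 sequenced and filtered by CDR length.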

Row | Sequence | polyreactivity (PSR sort gate)
1 | QVQLVESGGGLVQAGGSLRLSCAASGYIFGPYAMGWYRQAPGKERELVAAITWRGGRTYADSVKGRFTISRDNAKNTVYLQMNSLKPEDTAVYFCATETGYSPFVYYSGRYGYWGQGTQVNVSS | high polyreactivity
2 | QVQLVESGGGLVQAGGSLRLSCAASGYIFGQNAMGWYRPAPRKERELVASISDGGSTYYADSVKGRFTISRDNAKNTVYLQMNSLKPEDTAVYYCAAGQYWGEKALGAWLFDYWGQGTQLTVSS | low polyreactivity
3 | QVQLVESGGGLVQAGGSLRLSCAASGYIFGQNARGLYRQAPGKERELGASMSDGGSTYYADSVKGRFTISRDNAKNTVYLQLNSLKPEDTAVYYCAAYYSYGSTSHTYTCFDYWGQGTQVTVSS | low polyreactivity
4 | QVQLVESGGGLVQAGGSLRLSCAASGYIFGQYAMGWYRQAPGKERELVADITRGGDTYYADSVKGRFTISRDNAKNTVYLQMNSLKPEDTAVYYCAAEQGRTSYRYYYWGQGTQVTVSS | high polyreactivity
5 | QVQLVESGGGLVQAGGSLRLSCAASGYIFGRNAMGWYRQAPGKEREFVAAISYSGSSTYYADSVKGRFTISRDNAKNTVYLQMNSLKPEDTAVYYCNAVYYRSRFGTSIRYDYWGQGTQVTVSS | high polyreactivity
6 | QVQLVESGGGLVQAGGSLRLSCAASGYIFGYNAMGWYRPAPGKERELVATITWRGGSTYYADSVKGRFTISRDNAKNTVYLQMNSLKPEDTAVYYCAAVRWVRYRTSAYEYWGQGTQVTVSS | high polyreactivity
7 | QVQLVESGGGLVQAGGSLRLSCAASGYIFGYYTMGWYRQAPGKERELVATIRSGGSTYYADSVKGRFTISRDNAKNTVYLQMNSLKPEDTAVYYWAKRVRRISEYGYWGQGTQVTVSS | high polyreactivity
8 | QVQLVESGGGLVQAGGSLRLSCAASGYIFGYYVMGWYRQAPGKERELVAAISGRGGRTYYADSVKGRFTISRDNAKNTVYLQMNSLKPEDTAVYYCAAADLPGTMYYWGQGTQVTVSS | high polyreactivity
9 | QVQLVESGGGLVQAGGSLRLSCAASGYIFHRYVMGWYRQAPGKERELVASISWSGGSTYYADSVKGRFTISRDNAKNTVYLQMTSLKPEDTAVYYCGALSPYRRGYYWGQGTQVTVSS | high polyreactivity
10 | QVQLVESGGGLVQAGGSLRLSCAASGYIFKFYTMGWYRQAPGKERELVAAISRSGGSTYYADSVKGRFTISRDNAKNTVYLQLNSLKPEDTAVYYCARPRTRQGDYWGQGSQVTVSS | high polyreactivity
11 | QVQLVESGGGLVQAGGSLRLSCAASGYIFKKYAMGWYRQAPGKEREFVAAISISGGRTYYADSVKGRFTISRDNAKNTVYLQMNSLKPEDTAVYYCNKVHYGRRHSYSGAIYGEDYWGQGTQVTVSS | high polyreactivity
12 | QVQLVESGGGLVQAGGSLRLSCAASGYIFKSNVMGWYRQAPGKERELVAAITTDGSTYYADSVKGRFTISRDNAKNTVYLQMNSLKPEDTAVYYCAAGKAYWYARKPYARYYYWGQGTQVTVSS | high polyreactivity
13 | QVQLVESGGGLVQAGGSLRLSCAASGYIFLRNAMGWYRQAPGKERELVAAIRRTGGSTYADSVKGRFTISRDNAKNTVYLQMNSLKPEDTAVYYCNAGYLLYYDYHLFYWVQGTQVTVSS | low polyreactivity
14 | QVQLVESGGGLVQAGGSLRLSCAASGYIFLTNAMGWYRQAPGKERELVAAISVSGGRTYYADSVKGRFTISRDNAKNTVYLQMNSLKPEDTAVYYCNTLLTYGYDYWGQGTQVTVSS | low polyreactivity
15 | QVQLVESGGGLVQAGGSLRLSCAASGYIFLYSTMGWYRQAPGKERELVAAITIGGGTYYADSVKGRFTISRDNAKNTVYLQMNSLKPEDTAVYYCNADYASYYRYSRPLEMNYWGQGTQVTVSS | low polyreactivity
16 | QVQLVESGGGLVQAGGSLRLSCAASGYIFNKYVMGWYRQAPGKERELVAAISASGGSTYYADSVKGRFTISRDNAKNTVYLQMNSLKPEDTAVYYCAATLYRRMDYWGQGTEVTVSS | high polyreactivity

Row | Sequence | polyreactivity (PSR sort gate)
17 | QVQLVESGGGLVQAGGSLRLSCAASGYIFPKNAIGWYRQAPWKERELVAAITGSGGSTYYADSVKGRFTISRDNAKNTVYLQMNSLKPEDTAVYYCAKRSWIEYDYWGQGTQVTVSS | low polyreactivity
18 | QVQLVESGGGLVQAGGSLRLSCAASGYIFPSNTMGWSIQAPGKERELVATISRSGVSTYYADSVKGRFTISRDYAKNTVYLHMYSLKPDDTAVYYCAASTVYYYRSKWLSSFDYWGQGTQVTVSS | low polyreactivity
19 | QVQLVESGGGLVQAGGSLRLSCAASGYIFRFNAMGWYRQAPGKERELVAVITSGARTYYADSVKGRFTISRDNAKNTVYLQMNSLKPEDTAVYYCNAGARRYLYDYWGQGTQVTVSS | low polyreactivity
20 | QVQLVESGGGLVQAGGSLRLSCAASGYIFRGYVMGWYRQAPGKERELVAAITSRGDSTYYADSVKGRFTISRDNAKNTVYLQMNSLKPEDTAVYYCNAVHYYVEYDYWGQGTEVTVSS | high polyreactivity
21 | QVQLVESGGGLVQAGGSLRLSCAASGYIFRLNAMGWYRQAAGKERELLAGISTGGRTNYADSVKGRFTISRDNAKNTVNLQMNSLTPEDTAVYYCAAAWHTASWVGSDSLGGGYWGQGTQVTVSS | low polyreactivity
22 | QVQLVESGGGLVQAGGSLRLSCAASGYIFRLYTMGWYRQAPGKERELVAAISYSGGSTYYADSVKGRFTISRDNAKNTVYLQMNSLKPEDTAVYYCAAEDWRGYRWIRYGYWGQGTQVTVSS | low polyreactivity
23 | QVQLVESGGGLVQAGGSLRLSCAASGYIFSANAMGWYRQAPGKEREFVAAISSTGGSTYYADSVKGRFTISRDNAKNTVYLQMNSLKPEDTAVYYCAAYIRRYFHYDYWGQGTQVTVSS | high polyreactivity
24 | QVQLVESGGGLVQAGGSLRLSCAASGYIFSGYAMGWYRQAPGKERELVAAISSSGGRTYYADSVKGRFTISRDNAKNTVYLQMNSLKPEDTAVYYCATVPRKTPGNAELDYWGQGTQVTVSS | high polyreactivity
25 | QVQLVESGGGLVQAGGSLRLSCAASGYIFSLNGMGWYRQEPVKERELVAAITVSGGRTYYADSVKGRFTISRDNAKNTVYLQMNSLKPEDTAVYYCAKRGKYSYWPYYKYDYWGQGTQVTVSS | high polyreactivity
26 | QVQLVESGGGLVQAGGSLRLSCAASGYIFSYNAMGWYRQAPGKERELVAAITGDSGTYYADSVKGRFTISRDNAKNTVYLQMNSLKPEDTAVYYCATDPYIFPVFYDLYWGYNYWGQGTQVTVSS | low polyreactivity
27 | QVQLVESGGGLVQAGGSLRLSCAASGYIFTRNAMGWYRQAPGKDRELVAAISQGGGSTYYADSVKGRFTISRDNAKNTVYFQMNSLKPEDTAVYYCAAYFYTFVGYDYWGQGTQVTVSS | low polyreactivity
28 | QVQLVESGGGLVQAGGSLRLSCAASGYIFVKNAMGWYRQAPGKERELVAAISTRGGRTYYADSVKGRFTISRDNAKNTVYLQMNSLKPEDTAVYYCAAVHQTSYYDANSYGYWGQGTQVTVSS | high polyreactivity
29 | QVQLVESGGGLVQAGGSLRLSCAASGYIFVRNAMGWYRQAPGKERELVAAISGSGGSTYYADSVKGRFTISRDNAKNSVYLQMNSLKPEDTAVYYCAARRYGYRYDQPYSNDYWGLGTQVTVSS | low polyreactivity
30 | QVQLVESGGGLVQAGGSLRLSCAASGYIFYAYAMGWYRQAPGKERELVAAISSGGGRTYYADSVKGRFTISRDNAKNTVDLQRNSLKPEDTAVYYCAARRRDRGEYYYWGQGTQVTVSS | high polyreactivity
31 | QVQLVESGGGLVQAGGSLRLSCAASGYIFYDNAMGWYRQAPGKERELVAAISASGGDTYYADSVKGRFTISRDNAKNTVYLQMNSLKPEDTAVYYCAADLITYAMEYWGQGTEVTVSS | low polyreactivity
